Assay [1] addresses PEAK3 tandem-pS69 peptide (residues 54-74) (human). Briefly: ITC; binary; peptide in the cell (20 µM, or 16.8 µM after a buffer titration), protein in the syringe; 25 °C, 20 mM HEPES pH 7.4, 150 mM NaCl, 1 mM TCEP; single binding site model. On the technique in general: In ITC the heat of successive injections is recorded.
Assay [2] deals with PEAK3tandem-pS69 peptide (residues 54-74) (human). Kind of assay: ITC; 25 °C, peptide (20 µM) in the cell, protein in the syringe, sequential titrations; 20 mM HEPES pH 7.4, 150 mM NaCl, 1 mM TCEP; single binding site model.
Assay [3] has as its target PEAK3^tandem-pS69 peptide (residues 54–74, phosphorylated at S69) (human). Kind of assay: ITC; binary; peptide (20 μM) in the cell, protein in the syringe (14-3-3ɣ 200 μM; CrkII^NSH3 140 or 400 μM); 25 °C, 20 mM HEPES pH 7.4, 150 mM NaCl, 1 mM TCEP; single site model.
Assay [4] deals with PEAK3 SH2-pY peptide 23-29 (Homo sapiens) (UniProt Q6ZS72). Briefly: ITC. The following applies: cited from earlier work.
PEAK3 SH2-pY peptide 23-29 (Homo sapiens), sequence (Q6ZS72 whole entry, looked up, tested part not stated): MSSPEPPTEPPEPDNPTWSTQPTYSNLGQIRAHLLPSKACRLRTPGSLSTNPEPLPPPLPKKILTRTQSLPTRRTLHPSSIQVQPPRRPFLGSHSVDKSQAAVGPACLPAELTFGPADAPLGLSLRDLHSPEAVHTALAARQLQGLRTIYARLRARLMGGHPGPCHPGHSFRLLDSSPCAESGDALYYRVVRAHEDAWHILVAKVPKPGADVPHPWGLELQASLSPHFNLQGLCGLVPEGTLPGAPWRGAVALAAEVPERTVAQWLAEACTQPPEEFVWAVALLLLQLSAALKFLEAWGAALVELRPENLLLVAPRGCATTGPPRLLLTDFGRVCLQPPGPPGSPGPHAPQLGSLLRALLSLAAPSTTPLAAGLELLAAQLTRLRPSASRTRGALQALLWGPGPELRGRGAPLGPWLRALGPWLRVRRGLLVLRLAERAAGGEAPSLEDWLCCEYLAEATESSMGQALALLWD
For assay [5], the target named is PEAK3 tandem-pS69 : 14-3-3γ (K50E) complex (human). Kind of assay: ITC; ternary; CrkII NSH3 in the syringe titrated into the peptide:14-3-3γ complex left in the cell (16.8 µM) after the first titration; 25 °C, 20 mM HEPES pH 7.4, 150 mM NaCl, 1 mM TCEP; single binding site model.
Assay [6] concerns the target PEAK3^(tandem, 54–74)pS69:14-3-3γ complex (human). Briefly: ITC; ternary, sequential; CrkII^NSH3 (400 μM, syringe) titrated into the peptide (16.8 µM) left in the cell after a first titration with 14-3-3ɣ; 25 °C, 20 mM HEPES pH 7.4, 150 mM NaCl, 1 mM TCEP.
The target in assay [7] is PEAK1^IDR1 (residues 1082-1746), from insect cells, phosphorylated by Src (human) (UniProt Q9H792). Kind of assay: SPR; biotinylated PEAK proteins (with or without Src phosphorylation) captured with a biotin CAPture kit; Grb2 FL, Grb2 SH2, CrkII SH2, CrkII FL monomer or dimer as analytes; Biacore 8K+, 20 °C, HBS-TP with NaCl raised to 500 mM; 1 M NaCl regeneration; steady state. For orientation: In SPR one partner is held on a chip, and binding of the other changes the refractive index at the surface.
PEAK1^IDR1 (residues 1082-1746), from insect cells, phosphorylated by Src (human), sequence (Q9H792 1082-1746): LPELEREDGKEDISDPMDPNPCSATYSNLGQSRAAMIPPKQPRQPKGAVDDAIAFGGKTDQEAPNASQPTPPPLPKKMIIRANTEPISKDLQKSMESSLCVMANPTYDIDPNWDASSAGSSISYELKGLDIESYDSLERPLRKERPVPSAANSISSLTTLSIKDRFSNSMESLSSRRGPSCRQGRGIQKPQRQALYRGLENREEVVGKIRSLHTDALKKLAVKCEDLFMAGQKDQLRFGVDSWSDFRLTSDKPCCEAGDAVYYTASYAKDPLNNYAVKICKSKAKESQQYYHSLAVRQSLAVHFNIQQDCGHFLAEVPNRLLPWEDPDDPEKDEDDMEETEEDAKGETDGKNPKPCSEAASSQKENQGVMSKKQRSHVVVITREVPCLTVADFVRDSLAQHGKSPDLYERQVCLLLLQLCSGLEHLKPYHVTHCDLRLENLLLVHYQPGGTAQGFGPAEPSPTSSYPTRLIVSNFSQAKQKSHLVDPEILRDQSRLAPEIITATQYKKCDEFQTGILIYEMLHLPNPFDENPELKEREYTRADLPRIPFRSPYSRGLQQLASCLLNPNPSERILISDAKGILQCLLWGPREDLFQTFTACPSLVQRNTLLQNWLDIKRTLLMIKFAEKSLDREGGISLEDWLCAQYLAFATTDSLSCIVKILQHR

Assay [8] deals with PEAK2^IDR1 (residues 802-1406), from insect cells, phosphorylated by Src (human) (UniProt Q86YV5). Described as above.
PEAK2^IDR1 (residues 802-1406), from insect cells, phosphorylated by Src (human), sequence (Q86YV5 802-1406): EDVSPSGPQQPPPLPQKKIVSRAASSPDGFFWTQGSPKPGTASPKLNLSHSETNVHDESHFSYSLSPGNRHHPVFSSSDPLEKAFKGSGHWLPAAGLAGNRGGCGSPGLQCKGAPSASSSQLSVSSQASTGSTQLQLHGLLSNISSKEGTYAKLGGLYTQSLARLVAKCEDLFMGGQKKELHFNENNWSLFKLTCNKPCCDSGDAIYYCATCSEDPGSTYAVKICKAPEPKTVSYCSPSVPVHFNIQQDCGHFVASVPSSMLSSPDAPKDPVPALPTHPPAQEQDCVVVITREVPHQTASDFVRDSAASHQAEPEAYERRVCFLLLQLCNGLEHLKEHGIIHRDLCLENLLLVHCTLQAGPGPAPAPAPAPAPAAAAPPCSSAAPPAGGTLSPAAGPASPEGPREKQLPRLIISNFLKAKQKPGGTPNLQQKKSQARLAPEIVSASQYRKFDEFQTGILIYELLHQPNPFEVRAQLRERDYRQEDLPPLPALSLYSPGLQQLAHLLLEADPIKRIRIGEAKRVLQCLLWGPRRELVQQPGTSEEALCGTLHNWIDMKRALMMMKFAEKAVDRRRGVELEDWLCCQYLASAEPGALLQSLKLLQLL
In assay [9] the target is full length PEAK3 (PEAK3^FL, residues 1-473), from insect cells, phosphorylated by Src (human) (UniProt Q6ZS72). The description is as above.
full length PEAK3 (PEAK3^FL, residues 1-473), from insect cells, phosphorylated by Src (human), sequence (Q6ZS72 whole entry, the tested form may be a part): as the sequence (Q6ZS72 whole entry, looked up, tested part not stated) above
The target of a further assay is 14-3-3γ 1-247 (UniProt P61981). Briefly: SPR, immobilized 14-3-3γ. The following applies: reference: non-phosphorylated PEAK1tandem peptide; sites T1165.
The target of a further assay is 14-3-3ε 1-255 (UniProt P62258). Kind of assay: SPR, immobilized 14-3-3ε.
A further assay concerns the target 14-3-3η 1-246 (UniProt Q04917). Kind of assay: SPR, immobilized 14-3-3η.
For assay [10], the target named is 14-3-3σ (Methods: 14-3-3ς, with an accession that is 14-3-3ζ) 1-245. Kind of assay: SPR, immobilized 14-3-3σ.
Assay [11] has as its target 14-3-3ε (residues 1-255) (human) (UniProt P62258). Briefly: SPR; 14-3-3 isoforms amine coupled to a CM5 chip, tandem peptides as analytes (10 µM-10 nM for PEAK3 tandem-pS69, 20 µM-20 nM for all others); Biacore S200, 20 °C, HBS-TP; steady state, 1:1 model.
The target of assay [12] is 14-3-3γ (residues 1-247) (human). The assay is described as above.
Assay [13] addresses 14-3-3η (residues 1-246) (human). The description is as above.
The next assay addresses 14-3-3γ (human). Kind of assay: SPR; Biacore S200; 14-3-3 isoforms amine coupled to CM5, peptides injected (10 µM–10 nM for PEAK3^tandem-pS69, 20 µM–20 nM for other peptides); 20 °C, HBS-TP; steady-state 1:1 fit.
Assay [14] concerns the target PEAK2^IDR1 (human PEAK2 residues 802–1406) (human) (UniProt Q86YV5). Kind of assay: SEC-MALS; purified PEAK2^IDR1:CrkII^FL dimer complex (170 μg), Superdex 200 Increase 10/300, 20 mM HEPES pH 7.5, 150 mM NaCl, 1 mM TCEP. (In general: Size exclusion chromatography separates by hydrodynamic size, large species first.)
Assay [15] has as its target full length CrkII, dimer (CrkII^FL dimer) (human) (UniProt P46108). Kind of assay: SEC; single purified proteins on Superdex 200 (purification and re-runs), 20 mM HEPES pH 7.5–8.5, 150 mM NaCl, 1 mM TCEP; oligomeric state.
For assay [16], the target named is PEAK1^IDR1 (residues 1082-1746), from insect cells (human) (UniProt Q9H792). Kind of assay: SPR; biotinylated PEAK proteins (with or without Src phosphorylation) captured with a biotin CAPture kit; Grb2 FL, Grb2 SH2, CrkII SH2, CrkII FL monomer or dimer as analytes; Biacore 8K+, 20 °C, HBS-TP with NaCl raised to 500 mM; 1 M NaCl regeneration; steady state.
PEAK1^IDR1 (residues 1082-1746), from insect cells (human), sequence (Q9H792 1082-1746): as the sequence (Q9H792 1082-1746) above
[17] abbreviates: reference: non-phosphorylated PEAK1tandem peptide, sites T1165.
The mark [18] stands for this setting: reference: non-phosphorylated PEAK3tandem peptide, sites S69.

14-3-3ε (residues 1-255) (human), sequence (P62258 whole entry, the tested form may be a part, canonical isoform): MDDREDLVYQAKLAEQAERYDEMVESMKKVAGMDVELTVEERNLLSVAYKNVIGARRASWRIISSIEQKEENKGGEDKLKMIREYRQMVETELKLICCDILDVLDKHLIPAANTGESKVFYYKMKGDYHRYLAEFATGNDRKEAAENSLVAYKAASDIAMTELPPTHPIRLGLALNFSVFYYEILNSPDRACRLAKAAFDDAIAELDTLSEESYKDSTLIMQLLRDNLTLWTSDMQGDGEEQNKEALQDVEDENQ
PEAK2 tandem-pS826 peptide (residues 812-831), sequence (peptide): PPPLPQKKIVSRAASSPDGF
PEAK2^IDR1 (human PEAK2 residues 802–1406) (human), sequence (Q86YV5 802-1406): as the sequence (Q86YV5 802-1406) above

In the case of “14-3-3γ (gamma) (K50E) (natural protein)”, in assay [1], the Kd amounted to 5.99 µM and the stoichiometry N worked out at 0.726.
With 14-3-3γ (natural protein), the results for the dissociation constant Kd in [2] and in assay [3] were 0.126 µM and 0.13 µM, respectively.
Consider CrkII (from UniProt P46108), for which the Kd in assay [4] is 7.8 µM.
With “CrkII N-terminal SH3 domain (CrkII^NSH3, residues 134-191) (from UniProt P46108-1 134-191) (domain or fragment)”, in assay [5], the Kd was determined as 3.26 µM and the stoichiometry N turned out to be 0.69.
For “CrkII NSH3 domain (CrkII^NSH3, residues 134–191) (from UniProt P46108-1 134-191) (domain or fragment)”, the Kd in [6] is 3.6 µM.
Consider “CrkII SH2 domain (CrkII^SH2, residues 6-120) (from UniProt P46108-1 6-120) (domain or fragment)”, for which the values for the Kd in assay [7], in [8] and in assay [9] were 12.5 µM, 21 µM and 48 µM, respectively.
For the substance “PEAK1 1152-1171 (from UniProt Q9H792) PEAK1tandem-pT1165 peptide”, the “binding against the reference” value (with 14-3-3γ 1-247; in the assay with 14-3-3ε 1-255 (setting [17]); with 14-3-3η 1-246 (setting [17]); in assay [10] (setting [17])) was “stronger” each time.
In [11], “PEAK1 tandem peptide, non-phosphorylated (residues 1152-1171)” showed a Kd of more than 100 µM.
On the same count and under the same terms, under “PEAK1 tandem-pT1165 peptide (residues 1152-1171)” stands 5.39 µM.
For the substance “PEAK2 tandem peptide, non-phosphorylated (residues 812-831)”, the Kd in assay [12], in [11] and in assay [13] was more than 100 µM in each case.
Turning to “PEAK2 tandem-pS826 peptide (residues 812-831)”, the Kd in assay [12] came out at 1.35 µM; in assay [11], 7.42 µM; in [13], 1.94 µM.
“PEAK3 54-74 (from UniProt Q6ZS72) PEAK3tandem-pS69 peptide”: the “binding against the reference” value (in the assay with 14-3-3ε 1-255 (setting [18]); with 14-3-3η 1-246 (setting [18]); in assay [10] (setting [18])) was “stronger” in each case.
The substance “PEAK3 tandem peptide, non-phosphorylated (residues 54-74)” gave a Kd in [11] of more than 100 µM.
Same read-out and setting: under “PEAK3 tandem-pS69 peptide (residues 54-74)” stands 0.78 µM.
“PEAK3^tandem peptide, non-phosphorylated (residues 54–74; Ac-…-NH2)” registered a Kd with 14-3-3γ (human) of more than 10 µM.
In assay [14], “full length CrkII, dimer (CrkII^FL dimer) (from UniProt P46108-1 1-304) (natural protein)” showed a stoichiometry N (CrkII chains per PEAK2 chain (2:2)) of 1. The same substance showed a percent of the isolated protein that is dimer in assay [15] of 10%.
Consider “full length Grb2 (Grb2^FL, residues 1-217) (from UniProt P62993-1 1-217) (natural protein)”, for which the Kd in assay [16] was more than 50 µM; in assay [7], 4.3 µM.

In general, Kd refers to the concentration at which binding is half-saturated. One may read the stoichiometry N as a count of units in the complex or per binding partner.

These data come from paper PMC10279719.
